Where “and” joins values, the source holds several entries; their conditions need not be identical. Equal entries are not always repeated. Where two headings read alike, the source gives them in different places.
Columns and labels:
Assay in all cases: mass photometry
[1] = target: PopZ P146A (Caulobacter crescentus)
[2] = target: PopZ P146A (Caulobacter crescentus); remark: listed apart in the source
[3] = target: isolated OD-ΔL6 of PopZ (residues 102-171) (Caulobacter crescentus)
[4] = target: polar organizing protein Z (PopZ), wild type (Caulobacter crescentus)
[5] = target: ΔH2-PopZ (PopZ lacking residues 102-128) (Caulobacter crescentus)
[6] = target: ΔL6-PopZ (PopZ lacking residues 172-177) (Caulobacter crescentus)
[7] = target: ΔL6-PopZ (PopZ lacking residues 172-177) (Caulobacter crescentus); remark: listed apart in the source
[8] = target: Δloop-PopZ (PopZ lacking residues 129-134) (Caulobacter crescentus)

With PopZ P146A (natural protein) the stoichiometry N [1] was 3 and the stoichiometry N [2] was 3.

For “isolated OD-ΔL6 of PopZ (residues 102-171) (domain or fragment)”, the stoichiometry N [3] was 6.

With “polar organizing protein Z (PopZ), wild type (natural protein)” the stoichiometry N [4] was 12 and 18.

For “ΔH2-PopZ (PopZ lacking residues 102-128) (natural protein)”, the stoichiometry N [5] was 3 and 6.

In the case of “ΔL6-PopZ (PopZ lacking residues 172-177) (domain or fragment)”, the stoichiometry N [6] is reported as 6 and the stoichiometry N [7] is reported as 6.

“Δloop-PopZ (PopZ lacking residues 129-134) (natural protein)” showed a stoichiometry N [8] of 3.
